Reference: patent US20240043859A1, “HERBICIDE-RESISTANT PROTEIN, AND GENE AND USE THEREOF” (QINGDAO KINGAGROOT CHEMICAL COMPOUND CO., LTD., priority 2020, published 2024)
Entries after “also recorded” stand apart in the source; their conditions may differ.

Experiments:
[1] = test system: Arabidopsis thaliana; experiment: Herbicide resistance of transgenic Arabidopsis thaliana seedlings on plate medium (root growth); format: in vivo; conditions: Arabidopsis overexpressing the gene
Experimental: Expression in Arabidopsis thaliana was regulated by its AtUbi10 Arabidopsis thaliana ubiquitin promoter and the MAS (mannopine synthase) terminator. Hygromycin resistance gene (HygR=hpt) served as the selection marker.
Preparation of Agrobacterium infection solution: An activated Agrobacterium (GV3101) monoclone was picked and inoculated in 30 ml YEP liquid medium [yeast powder 10 g/L, tryptone 10 g/L, NaCl 5 g/L, 25 mg/L Rifampicin and 50 mg/L Kanamycin], shaking-cultured at 200 rmp/min, 28° C. overnight until the OD600 was about 1.0-1.5, then centrifuged at 6000 rmp/min for 10 min to collect the bacteria, and the supernatant was discarded. Arabidopsis thaliana infection solution (sucrose 50 g/L, Silwet L-77 300 μL/L, no need to adjust pH) was used to resuspend the cells to OD600=0.8 for later use.
Genetic transformation of Arabidopsis thaliana by flower dipping: Before transformation of Arabidopsis thaliana plants, attentions were paid to whether the plants were growing well, the inflorescences were abundant, and no stress response occurred. The first transformation was performed when plants were about 20 cm high. Plants could be properly watered if the soil was dry. The grown siliques were cut off with scissors the day before transformation. The inflorescences of the plants to be transformed were soaked in the above-mentioned Agrobacterium solution for 30 seconds to 1 minute, which was stirred gently during the period. And a layer of liquid film should appear on the infiltrated plant. The transformed plants were cultured in a dark environment for 24 hours, and then taken out and grown in a normal light environment. A second transformation could be performed in the same way a week later.
Seeds were treated with disinfectant for 5 min, washed with sterile water for 5 times and then one part was spread on MS transgenic screening medium (containing 30 μg/mL hygromycin, 100 μg/mL carbenicillin) to screen transgenic seedlings, and the other part was spread on MS medicated medium [containing 250 μg/mL Cefotaxime sodium and 0.3 μM 2,4-D] to screen herbicide-resistant seedlings at mean time. The petri dish spread with seeds was placed at 4° C. for vernalization for 3 days, and taken out to a illumination incubator for cultivation (temperature of 22° C., 16 hours of light, 8 hours of darkness, light intensity of 100-150 μmol/m^2/s, humidity of 75%). After one week, it was observed that the roots of the wild-type control seedlings were not elongated and their growth was inhibited, while the transgenic seedlings had normal root growth, showing drug resistance. The transgenic positive seedlings and herbicide-resistant seedlings were photographed and transplanted into small pots filled with soil for cultivation.
The transgenic lines with the nine vectors, pQY2309, pQY2310, pQY2311, pQY2312, pQY2313, pQY2314, pQY2315, pQY2316 and pQY2317, overexpressing AAD gene in the T2 generation were further tested on plate medium for their resistance to 2,4-D, 2,4-DB sodium and MCPA herbicide. Two events were tested for each transformant.

[2] = Chromogenic reaction of degrading herbicides in bacteria: 2,4-D; format: cell-based, Escherichia coli; conditions: recombinant E. coli expressing the gene, 2,4-D added to the medium, red = phenols
Experimental: (§1) To transform the plasmids to be tested, an AAD12-expressing plasmid and a blank control plasmid pET15b were respectively transformed into the protein expression E. coli BL21(DE3) strains. A monoclone was selected and inoculated in a 10 ml centrifuge tube with 3 ml LB medium, and cultivated at 37° C., 200 rpm for 6-8 hours. The culture medium was added with 0.1 mM IPTG and 2 mM α-ketoglutaric acid, and then 0.5 mM 2,4-D. The temperature was switched to 28° C. and the cultivation continued overnight. In the next morning, 200 μL of each bacteria solution was taken and centrifuged to precipitate thallus, 180 μL of the supernatant was taken and added in a 96-well plate, and 20 μL of borate buffer of pH 10 was added. Then the mixture was added with 2 μL of 8% potassium ferricyanide and mixed well, followed by adding 2 μL of 2% 4-aminoantipyrine, and placed at room temperature for 5 min to observe the color and detect the A510 value.
The bacteria solution also appeared red when 2,4-D was directly added into the medium of AAD12-expressing bacteria, as shown in FIG. 1.
2,4-D was added into these bacteria solutions of AAD gene-expressing recombinant E. coli and cultivation was continued for color development.

[3] = format: cell-based, Escherichia coli
Experimental: as §1, with “The culture medium was added with 0.1 mM IPTG and 2 mM α-ketoglutaric acid, and then 0.5 mM 2,4-D.” left out, “value. […]” for “value.”

Molecule	Resistance of transgenic Arabidopsis thaliana: 2,4-D [1]	Chromogenic reaction of degrading herbicides in bacteria: 2,4-D [2]	Chromogenic reaction of degrading herbicides in bacteria: MCPA [3]	other results
QYD26: AAD-like enzyme, SEQ ID NO. 51 (protein, Synthetic polypeptide, QYD26, D26) MSEFIYTLPSHNRAASYSHIRVTPTTGAIGADVENLDLTRLSDEGFAELRQALLAHKVIFIRDQALSVADLERVTQHLGEFGREPYVTCMADHPHVVHVVKEASEKAPFVFGGAWHTDWTFQERPPAFTLLYGHDIPPYGGDTCYANLALAYEWLSPGMQALLENLDAVHSPEMAYGVNAKHNALLENMAINYGSDTSADERSHPLVTRHPETGKKVLFINPAYTTGIKGLRTEESRPLLDYLFKLATSEAFTCRMRWRQGTLAIWDNRSTWHMPVADYHGMRREMFRTTVIGEVPSR	Yes	Yes	Yes	Chromogenic reaction of degrading herbicides in bacteria: 2,4-D ([2]; listed as D26): red reactions
QYD54: AAD-like enzyme, SEQ ID NO. 107 (protein, Synthetic polypeptide, QYD54, D54) MARMFDIAPLDATFGAVVTGVKVTRIDDATWRDLHAAWLEYALLIFPGQFLSRAEQIAFAKRFGPLEFEMAPISNVKADGTIRIEADNDDVVKVLKGNMGWHADSTYMPVQAKGAVFSAEVVPGEGGRTGWADMRAAYDALDAARRVRVESLTAYHSLYYSQAKLGHQPKRGSDYSGYGFHDGPVPRRPLVKVHPETGRKSLLIGRHAHNIPGMDVAESTQFLESLVDFACQPPRIYHHQWTAGDAVVWDNRCLLHRATPWDMTKPRVMWHSRIAGDPVSEASLG		Yes	Yes	Chromogenic reaction of degrading herbicides in bacteria: 2,4-D ([2]; listed as D54): could degrade 2,4-D; also recorded: capable of degrading 2,4-D
QYD62: AAD-like enzyme, SEQ ID NO. 123; 100.00% identical to US20140141044-13793 (for medical field) (protein, Synthetic polypeptide, QYD62, D62) MTIAIRQLHKHFVGEVSGLDLRKPLTADEARDIEAAMDKYAVLVFHDQDITDEQQMAFALNFGQREDARGGTVTKAKDYRLQSGLNDVSNLGKDGKPLAKDSRTHLFNLGNCLWHSDSSFRPIPAKFSLLSARVVNPKGGNTEFADMRAAYDALDDETKTEIEDLVCEHSLMYSRGSLGFTEYTDEEKEMFKPVLQRLVRTHPVHRRKSLYLSSHAGKVVGMSVPEGRLLLRDLNEHATQPEFVYVHKWKLHDLVMWDNRQTMHRVRRYDQSQPRDMRRATVAGTEPTVQQQAAE		Yes	Yes	Chromogenic reaction of degrading herbicides in bacteria: 2,4-D ([2]; listed as D62): could degrade 2,4-D; also recorded: capable of degrading 2,4-D
QYD35: AAD-like enzyme, SEQ ID NO. 69 (protein, Synthetic polypeptide, QYD35, D35) MSARPFTVEPLPATFGARITGLDLAALDDATFAALYDAWLEYALLIFPGAGLSTAEQVTFARRFGDMEFDIAPLSNVRKDGSLRADDGTDDVVKVLRGNMGWHADSTYMPVQAKGAVFSAHVVPEEGGETGWADMRAAYDALDDDLRRRIEGLSAHHSLVHSQARLGHAHGTDSEYSGYGFHDEAPLRPLVKVHPETGRRSLLIGRHAYGIPGLEETASERLLDELVDFACRPPRVYHHRWQVGDVVLWDNRCLLHRACPWDMSRPRVMYHSRIAGDPVTEAGLAGQSEQPSASGS		Yes	NO	Chromogenic reaction of degrading herbicides in bacteria: 2,4-D ([2]; listed as D35): red reactions
QYD21: AAD-like enzyme, SEQ ID NO. 41 (protein, Synthetic polypeptide, QYD21, D21) MTTIETKPLTPCFGVEVSGMTLSEVSKGHDFARLRDLFEEHSALLFRAQEISNEEHMALAQLFGPIEDRKADERKPGEAFEVPEVSNVQKDGTTSGEMDLHTLNLKSNFLWHSDSTFLPTPALTNILIGRVVTTEGGATELASTRAAWAAMPEELKSRIRGRGIWHRYSHSRRKISPELAKLPMFNKWPDQHWSAVWPNPVNGREGLYIASHAFKVDGYDEAESQELLDELMAFCTQPEFTYAHQWNVGDVLIWDQRAVLHRGTPWPYEQPRTLSSICVSVTEADGIGSIRMPA	Yes	Yes	Yes	Chromogenic reaction of degrading herbicides in bacteria: 2,4-D ([2]; listed as D21): could degrade 2,4-D; also recorded: capable of degrading 2,4-D
QYD32: AAD-like enzyme, SEQ ID NO. 63 (protein, Synthetic polypeptide, QYD32, D32) MSQMTFEPLSGPTFGARVHGVKLTAMDDAAFRELHDNWLEYGLLIVPEQFLTREEQIAFARRFGDLEFEIAEIGNMRDDGSLRPDDGSDEMMKINRGNMGWHHDSTYMPVQAKGAVFSAEIVPQEGGATGFADMRAAYDELDDAMKARIENLRAHHSLHHSQGKVGHKTKPVKDGKVNAGGTFGGYGLHDGPVSVRPLVKVHPETGRKNLLVGRHAYDIIGMSSEESEKLLQDLVDFACQPPRIYHHQWAPGDAVIWDNRRLMHQATPWPFDQARRMWHSRIAGDPATEAAMAA	Yes	Yes	NO	Chromogenic reaction of degrading herbicides in bacteria: 2,4-D ([2]; listed as D32): red reactions
QYD33: AAD-like enzyme, SEQ ID NO. 65 (protein, Synthetic polypeptide, QYD33, D33) MSEHFDVEPLDASFGARITGLKLTEMSDAAFDALYETWLEHGLLLFPDQHMEPEAQVDVARRFGPLEVKLFAISNLKDDGSVRTSDEDDLVKILKGNMGWHHDSTYMPLQAKGAVFSAHVVPSEGGETGFADMRQAWDALDDDMKRRLEGLTALHSLHYSQMKAGFRRKEKDSEYIGYGLDERPPVRRQMVKVHPETGRKSLLVGRHAFGVSGMSEKESEEFVDGLNEFAGSGDWTYHHKWTPGEVVLWDNRCLMHRACPWDMTKPRVMYHSRIAGDPVSEAEVAA		Yes	NO	Chromogenic reaction of degrading herbicides in bacteria: 2,4-D ([2]; listed as D33): red reactions
